The values that follow come from US20240301052A1 (LANOVA MEDICINES DEVELOPMENT, published 2024).

One test has as its target T1, Rhesus SLC34A2 (Rhesus, UniProt F7HDA3 1-690).
T1 construct: whole, on cells
T1 sequence: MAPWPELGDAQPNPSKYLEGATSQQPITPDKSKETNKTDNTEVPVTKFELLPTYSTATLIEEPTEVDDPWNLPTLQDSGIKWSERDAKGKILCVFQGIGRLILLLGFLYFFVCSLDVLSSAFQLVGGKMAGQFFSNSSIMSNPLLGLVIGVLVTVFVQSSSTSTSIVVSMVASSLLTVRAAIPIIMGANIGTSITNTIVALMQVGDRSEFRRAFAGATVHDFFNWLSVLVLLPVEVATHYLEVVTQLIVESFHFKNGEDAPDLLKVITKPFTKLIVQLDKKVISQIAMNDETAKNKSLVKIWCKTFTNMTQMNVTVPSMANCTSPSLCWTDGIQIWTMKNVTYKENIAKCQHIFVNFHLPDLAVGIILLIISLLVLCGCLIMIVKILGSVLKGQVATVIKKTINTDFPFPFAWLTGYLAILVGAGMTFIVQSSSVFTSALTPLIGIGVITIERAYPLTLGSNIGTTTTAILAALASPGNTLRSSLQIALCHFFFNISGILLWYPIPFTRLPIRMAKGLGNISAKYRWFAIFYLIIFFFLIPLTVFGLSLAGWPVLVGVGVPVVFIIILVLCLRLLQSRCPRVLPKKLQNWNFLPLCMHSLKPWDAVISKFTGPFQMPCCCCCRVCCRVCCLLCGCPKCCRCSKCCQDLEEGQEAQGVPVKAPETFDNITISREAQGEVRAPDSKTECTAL
As to the kind of experiment: FACS, HEK293/Rhesus SLC34A2 cells. On the technique in general: In flow cytometry, cells or beads pass a laser one at a time.

Test [1] concerns the target T2, human SLC34A2 (human, UniProt O95436 1-690).
T2 sequence (looked up): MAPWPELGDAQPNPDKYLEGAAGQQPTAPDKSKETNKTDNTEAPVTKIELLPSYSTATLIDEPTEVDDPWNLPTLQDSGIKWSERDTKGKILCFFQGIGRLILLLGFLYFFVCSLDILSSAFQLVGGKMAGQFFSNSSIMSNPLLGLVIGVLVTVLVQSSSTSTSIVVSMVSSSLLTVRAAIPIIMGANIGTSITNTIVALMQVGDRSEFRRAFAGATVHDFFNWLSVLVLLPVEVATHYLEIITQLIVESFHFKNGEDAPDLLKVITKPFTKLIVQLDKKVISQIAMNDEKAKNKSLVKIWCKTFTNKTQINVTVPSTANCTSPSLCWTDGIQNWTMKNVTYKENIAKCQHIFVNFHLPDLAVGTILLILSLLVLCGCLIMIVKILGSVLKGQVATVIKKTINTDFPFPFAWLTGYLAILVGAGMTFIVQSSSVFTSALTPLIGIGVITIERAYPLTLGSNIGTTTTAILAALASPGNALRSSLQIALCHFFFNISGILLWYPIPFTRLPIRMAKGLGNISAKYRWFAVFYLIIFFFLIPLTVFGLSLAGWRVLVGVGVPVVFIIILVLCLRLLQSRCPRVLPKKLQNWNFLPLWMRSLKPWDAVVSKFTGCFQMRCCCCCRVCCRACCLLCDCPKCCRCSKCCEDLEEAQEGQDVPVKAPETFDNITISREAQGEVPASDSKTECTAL
In words: FACS, HEK293/human SLC34A2 cells.

Test [2] has as its target T2, human SLC34A2. In words: FACS, RMG-1 cells.
Test [3] has as its target T2, human SLC34A2. As to the kind of experiment: FACS, OVCAR3 cells.
Test [4] concerns the target Cynomolgus SLC34A2 (Cynomolgus). As to the kind of experiment: FACS, cells expressing Cynomolgus SLC34A2.
Test [5] deals with T2, human SLC34A2. As to the kind of experiment: FACS, HEK293/human SLC34A2 cells. The source holds these as a separate data set.
For test [6], the target named is T2, human SLC34A2. In words: FACS, OVCAR3 cells. The source holds these as a separate data set.
The target in test [7] is T2, human SLC34A2. In words: FACS, OVCAR3 cells. This is another data set of the same source.
Test [8] addresses T2, human SLC34A2. In words: FACS, OVCAR3 cells. The source holds these as a separate data set.
Test [9] concerns the target T2, human SLC34A2. In words: FACS, RMG-1 cells. This is another data set of the same source.
In another test the target is T3, rat SLC34A2 (rat, UniProt Q9JJ09 1-695).
T3 construct: whole, on cells
T3 sequence (looked up): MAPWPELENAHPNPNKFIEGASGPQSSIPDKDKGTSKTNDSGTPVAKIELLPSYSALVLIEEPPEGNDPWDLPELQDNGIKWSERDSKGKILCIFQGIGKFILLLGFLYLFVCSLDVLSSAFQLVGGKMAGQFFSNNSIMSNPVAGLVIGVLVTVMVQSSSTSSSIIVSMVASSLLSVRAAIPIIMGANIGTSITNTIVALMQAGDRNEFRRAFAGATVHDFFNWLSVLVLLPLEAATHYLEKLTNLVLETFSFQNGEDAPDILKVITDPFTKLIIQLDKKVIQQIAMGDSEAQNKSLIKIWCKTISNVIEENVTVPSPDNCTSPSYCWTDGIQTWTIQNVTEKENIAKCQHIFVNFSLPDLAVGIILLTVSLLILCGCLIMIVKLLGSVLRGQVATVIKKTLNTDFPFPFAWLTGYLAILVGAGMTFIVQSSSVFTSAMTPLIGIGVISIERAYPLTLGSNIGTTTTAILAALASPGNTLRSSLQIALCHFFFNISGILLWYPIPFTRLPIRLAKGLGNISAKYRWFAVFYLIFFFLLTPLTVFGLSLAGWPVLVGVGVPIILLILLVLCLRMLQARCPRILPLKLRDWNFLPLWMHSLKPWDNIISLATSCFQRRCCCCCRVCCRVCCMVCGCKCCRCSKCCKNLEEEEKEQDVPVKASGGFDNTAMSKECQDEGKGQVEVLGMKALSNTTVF
In words: FACS, HEK293/Rat SLC34A2 cells.

For test [10], the target named is T2, human SLC34A2. As to the kind of experiment: FACS, HEK293/human SLC34A2 cells. The source holds these as a separate data set.
Test [11] has as its target T2, human SLC34A2. In words: FACS, OVCAR3 cells. The source holds these as a separate data set.

B1: XMT-1536 (antibody, INN chains, looked up, V domains shown)
VH: QVQLVQSGAEVVKPGASVKMSCKASGYTFTGYNIHWVKQAPGQGLEWIGAIYPGNGDTSYKQKFRGRATLTADTSTSTVYMELSSLRSEDSAVYYCARGETARATFAYWGQGTLVTVSS
VL: DIQMTQSPSSLSASVGDRVTITCSASQDIGNFLNWYQQKPGKTVKVLIYYTSSLYSGVPSRFSGSGSGTDYTLTISSLQPEDFATYYCQQYSKLPLTFGQGTKLELK
modifications: rilsodotin auristatin payload
One may read the EC50 as the midpoint of the concentration-response curve. Low readings indicate an effect from little substance, high ones a need for much substance. With B1, the EC50 came out at 2.54 nM with Rhesus SLC34A2; 2.5 nM with human SLC34A2 [1]; 4.87 nM with human SLC34A2 [2]; 10.3 nM in the test with human SLC34A2 [3]; 29.3 nM in test [4]; 2.68 nM with human SLC34A2 [5]. Further, the EC50 turned out to be 6.82 nM with human SLC34A2 [6]; 6.87 nM with human SLC34A2 [7]; 6.8 nM in the test with human SLC34A2 [8]; 7.17 nM with human SLC34A2 [9]; 4.48 nM with rat SLC34A2; 4.27 nM with human SLC34A2 [10]. Moreover, in the test with human SLC34A2 [11], the EC50 was determined as 2.68 nM. Besides, the Top (MFI) was determined as 11900 MFI in the test with Rhesus SLC34A2; 27700 MFI with human SLC34A2 [1]; 9110 MFI with human SLC34A2 [2]; 2050 MFI in [4]; 29000 MFI with human SLC34A2 [7]; 32400 MFI with human SLC34A2 [11]. In addition, the Top is 22500 MFI in the test with human SLC34A2 [3], 32400 MFI with human SLC34A2 [5] and 9940 MFI with human SLC34A2 [9].
